Data from publication PMC3068998.

Conditions: glycan lost

B1: SV2A: N498Q (protein)
parent chain: MEEGFRDRAAFIRGAKDIAKEVKKHAAKKVVKGLDRVQDEYSRRSYSRFEEEEDDDDFPAPADGYYRGEGAQDEEEGGASSDATEGHDEDDEIYEGEYQGIPRAESGGKGERMADGAPLAGVRGGLSDGEGPPGGRGEAQRRKDREELAQQYETILRECGHGRFQWTLYFVLGLALMADGVEVFVVGFVLPSAEKDMCLSDSNKGMLGLIVYLGMMVGAFLWGGLADRLGRRQCLLISLSVNSVFAFFSSFVQGYGTFLFCRLLSGVGIGGSIPIVFSYFSEFLAQEKRGEHLSWLCMFWMIGGVYAAAMAWAIIPHYGWSFQMGSAYQFHSWRVFVLVCAFPSVFAIGALTTQPESPRFFLENGKHDEAWMVLKQVHDTNMRAKGHPERVFSVTHIKTIHQEDELIEIQSDTGTWYQRWGVRALSLGGQVWGNFLSCFSPEYRRITLMMMGVWFTMSFSYYGLTVWFPDMIRHLQAVDYAARTKVFPGERVEHVTFNFTLENQIHRGGQYFNDKFIGLRLKSVSFEDSLFEECYFEDVTSSNTFFRNCTFINTVFYNTDLFEYKFVNSRLVNSTFLHNKEGCPLDVTGTGEGAYMVYFVSFLGTLAVLPGNIVSALLMDKIGRLRMLAGSSVLSCVSCFFLSFGNSESAMIALLCLFGGVSIASWNALDVLTVELYPSDKRTTAFGFLNALCKLAAVLGISIFTSFVGITKAAPILFASAALALGSSLALKLPETRGQVLQ
- other: toxin entry into neurons: no change

B2: SV2A: N548Q (protein)
parent chain: B1 parent chain
- other: toxin entry into neurons: no change
